The text below walks through data of publication PMC4672576, “Beninese children with cerebral malaria do not develop humoral immunity against the IT4-VAR19-DC8 PfEMP1 variant linked to EPCR and brain endothelial binding” (Malaria Journal, 2015).

The term Kd denotes the equilibrium constant for the complex coming apart. One may read the koff as the rate constant with which the complex falls apart. What is called kon is the second-order rate constant of association.

The labels stand for the following.
B1: Recombinant soluble EPCR with a 6x His tag (EPCRH) (receptor, human, UniProt Q9UNN8 18-210, looked up)
chain: SQDASDGLQRLHMLQISYFRDPYHVWYQGNASLGGHLTHVLEGPDTNTTIIQLQPLQEPESWARTQSGLQSYLLQFHGLVRLVHQERTLAFPLTIRCFLGCELPPEGSRAHVFFEVAVNGSSFVSFRPERALWQADTQVTSGVVTFTLQQLNAYNRTRYELREFLEDTCVQYVQKHISAENTKGSQTSRSYTS
notes: Endothelial protein C receptor, human, extracellular region residues S18-S210, amplified from a human lung endothelium cDNA library; glycosylated (migrates at about 40 kDa); also called recombinant EPCR; not shown: His6, C-terminal, kept
B2: VAR19-CIDRα1.1 (domain or fragment)
chain: SVECFHSWAKNLLIDTIRWEHQLKNCINNTNVTDCTSKCIKNCECYEKWIKEKEKEWPQVKGVLKKKDETSHNYYDKLKDVFDRFLFEVKGALDQDEKGKWDQFTKDLEKKFGPSVESAGTANSQDAIELLLDHLNDNATTCKDNNSLAVENCPKTKINP
notes: PfEMP1 IT4-VAR19, CIDRα1.1 domain, residues S580-P739, amplified from IT4 genomic DNA

For assay [1], the target named is T1, VAR19-NTS-DBLγ6 (N-terminal region of IT4-VAR19 comprising the full-length DC8 cassette) (Plasmodium falciparum (IT4 strain), UniProt A3R6S3 2-1713).
T1 construct: PfEMP1 IT4-VAR19, Plasmodium falciparum IT4 (FCR3) strain, residues G2-P1713 (NTS, DBLα2, CIDRα1.1, DBLβ12, DBLγ6); synthetic codon-optimised gene; also called NTS-DBLɣ6; IT4-VAR19-DC8 cassette; not shown: His6, C-terminal, kept
The experiment in a line: SPR; EPCRH immobilised on a CM5 chip by amine coupling (1324 RU); IT4-VAR19 proteins injected 180 s, dissociation 400 s; HBS-EP buffer, 25 °C; Biacore X100; global 1:1 Langmuir fit. As to conditions: both partners purified.

Assay [2] concerns the target B1. The description is as above. The settings on record: both partners purified.

Take B1: in assay [1], the Kd was found to be 52 nM, the koff was 0.0011 s⁻¹ and the kon was 22000 M⁻¹ s⁻¹.
In the case of B2, in assay [2], the equilibrium dissociation constant (Kd) is 340 nM, the koff stood at 0.012 s⁻¹ and the on-rate (kon) was found to be 35000 M⁻¹ s⁻¹.
